# Measurements reported in patent US20240368565A1, “COMPLEMENTATION-BASED TAGS AND REPORTERS FOR DUAL-MODALITY LABELING” (Promega Corporation, priority 2023, published 2024).
# Assays:
# [1] = system: synthetic HaloTag[3-19] peptide; assay: Stabilization of activity of LgHT-LgBiT variants by synthetic peptides in E. coli lysates; assay type: biochemical; conditions: 10 micromolar or more synthetic peptide, 10 minutes at temperature, 50 nM JF646 HaloTag ligand
# [2] = Labeling kinetics of LgHT-LgBiT variants with TMR HaloTag ligand in E. coli lysates (fluorescence polarization); assay type: biochemical; conditions: 200 micromolar HaloTag[3-19] synthetic peptide, 10 nM TMR HaloTag ligand, versus M2F control
# [3] = Labeling kinetics with various HaloTag ligands (fluorescence polarization); assay type: biochemical; conditions: proteins at 10 nM, ligand at 2.5 nM, Tris-buffered saline+0.01% CHAPS
# Method: (§1) FIG. 132. Labeling kinetics of HaloTag7 and HaloTag[22-297](M2F+D53G+K140E)-12×Gly/Ser-LgBiT-3×Gly/Ser-6×His with HaloTag ligand JF549. Fluorescence polarization was monitored over time to observe labeling kinetics of JF549 HaloTag ligand by HaloTag standard protein or HaloTag[22-297](M2F+D53G+K140E)-12×Gly/Ser-LgBiT-3×Gly/Ser-6×His. The experiment was completed in Tris-buffered saline+0.01% CHAPS with proteins at 10 nM and ligand at 2.5 nM.
# as §1, with “133.” for “132.”, “JF503.” for “JF549.”, “JF503” for “JF549”
# as §1, with “134.” for “132.”, “JFX554.” for “JF549.”, “JFX554” for “JF549”
# as §1, with “135.” for “132.”, “Oregon Green.” for “JF549.”, “Oregon Green” for “JF549”
# FIG. 136. Labeling kinetics of HaloTag7 and HaloTag[22-297](M2F+D53G+K140E)-12×Gly/Ser-LgBiT-3×Gly/Ser-6×His with a FAM HaloTag ligand. Fluorescence polarization was monitored over time to observe labeling kinetics of FAM HaloTag ligand by HaloTag standard protein or HaloTag[22-297](M2F+D53G+K140E)-12×Gly/Ser-LgBiT-3×Gly/Ser-6×His. The experiment was completed in Tris-buffered saline+0.01% CHAPS with proteins at 10 nM and ligand at 2.5 nM.
# [4] = 10 nM protein, 125 micromolar HaloTag[3-19] synthetic peptide, 10 minutes, 2.5 nM TMR HaloTag ligand
# DualTag peptide = assay: Dissociation kinetics after complementation with synthetic peptide (dilution, luminescence); conditions: 100 nM protein, 200 nM peptide, diluted to 1 pM, furimazine
# Method: After preincubation with peptide, samples were diluted to 1 pM in either buffer alone or buffer 100 nM Tag peptide. At various time points, samples were transferred into luminescent substrate (Furimazine) to monitor dissociation of the complex.
molecule,measurement,setting,value
D53G+V177E: reporter variant of FIG. 50 (protein) MFHYVDVGPRDGTPVLFLHGNPTSSYVWRNIIPHVAPTHRCIAPDLIGMGKSGKPDLGYFFDDHVRFMDAFIEALGLEEVVLVIHDWGSALGFHWAKRNPERVKGIAFMEFIRPIPTWDEWPEFARETFQAFRTTDVGRKLIIDQNVFIEGTLPMGVVRPLTEVEMDHYREPFLNPEDREPLWRFPNELPIAGEPANIVALVEEYMDWLHQSPVPKLLFWGTPGVLIPPAEAARLAKSLPNCKAVDIGPGLNLLQEDNPDLIGSEIARWLSTLEISGGSGGSGGGGSGGMVFTLEDFVGDWEQTAAYNLDQVLEQGGVSSLLQNLAVSVTPIQRIVRSGENALKIDIHVIIPYEGLSADQMAQIEEVFKVVYPVDDHHFKVILPYGTLVIDGVTPNMLNYFGRPYEGIAVFDGKKITVTGTLWNGNKIIDERLITPDGSMLFRVTINS,Optimal temperature of peptide stabilization versus the non-peptide condition,[1],~35 °C
M49F+S89A: reporter variant of FIG. 51 (protein) MFHYVDVGPRDGTPVLFLHGNPTSSYVWRNIIPHVAPTHRCIAPDLIGFGKSDKPDLGYFFDDHVRFMDAFIEALGLEEVVLVIHDWGAALGFHWAKRNPERVKGIAFMEFIRPIPTWDEWPEFARETFQAFRTTDVGRKLIIDQNVFIEGTLPMGVVRPLTEVEMDHYREPFLNPVDREPLWRFPNELPIAGEPANIVALVEEYMDWLHQSPVPKLLFWGTPGVLIPPAEAARLAKSLPNCKAVDIGPGLNLLQEDNPDLIGSEIARWLSTLEISGGSGGSGGGGSGGMVFTLEDFVGDWEQTAAYNLDQVLEQGGVSSLLQNLAVSVTPIQRIVRSGENALKIDIHVIIPYEGLSADQMAQIEEVFKVVYPVDDHHFKVILPYGTLVIDGVTPNMLNYFGRPYEGIAVFDGKKITVTGTLWNGNKIIDERLITPDGSMLFRVTINS,Optimal temperature of peptide stabilization versus the non-peptide condition,[1],~35 °C
M49F+L57I: reporter variant of FIG. 52 (protein) MFHYVDVGPRDGTPVLFLHGNPTSSYVWRNIIPHVAPTHRCIAPDLIGFGKSDKPDIGYFFDDHVRFMDAFIEALGLEEVVLVIHDWGSALGFHWAKRNPERVKGIAFMEFIRPIPTWDEWPEFARETFQAFRTTDVGRKLIIDQNVFIEGTLPMGVVRPLTEVEMDHYREPFLNPVDREPLWRFPNELPIAGEPANIVALVEEYMDWLHQSPVPKLLFWGTPGVLIPPAEAARLAKSLPNCKAVDIGPGLNLLQEDNPDLIGSEIARWLSTLEISGGSGGSGGGGSGGMVFTLEDFVGDWEQTAAYNLDQVLEQGGVSSLLQNLAVSVTPIQRIVRSGENALKIDIHVIIPYEGLSADQMAQIEEVFKVVYPVDDHHFKVILPYGTLVIDGVTPNMLNYFGRPYEGIAVFDGKKITVTGTLWNGNKIIDERLITPDGSMLFRVTINS,Optimal temperature of peptide stabilization versus the non-peptide condition,[1],~40 °C
M2F+D53G+V177E: reporter variant of FIG. 53 (protein) MFHYVDVGPRDGTPVLFLHGNPTSSYVWRNIIPHVAPTHRCIAPDLIGMGKSGKPDLGYFFDDHVRFMDAFIEALGLEEVVLVIHDWGSALGFHWAKRNPERVKGIAFMEFIRPIPTWDEWPEFARETFQAFRTTDVGRKLIIDQNVFIEGTLPMGVVRPLTEVEMDHYREPFLNPEDREPLWRFPNELPIAGEPANIVALVEEYMDWLHQSPVPKLLFWGTPGVLIPPAEAARLAKSLPNCKAVDIGPGLNLLQEDNPDLIGSEIARWLSTLEISGGSGGSGGGGSGGMVFTLEDFVGDWEQTAAYNLDQVLEQGGVSSLLQNLAVSVTPIQRIVRSGENALKIDIHVIIPYEGLSADQMAQIEEVFKVVYPVDDHHFKVILPYGTLVIDGVTPNMLNYFGRPYEGIAVFDGKKITVTGTLWNGNKIIDERLITPDGSMLFRVTINSGSGHHHHHH,"Labeling with TMR HaloTag ligand, response to synthetic peptide complementation",[2],faster ligand binding and labeling
M2F+K140E: reporter variant of FIG. 54 and 58 (protein) MFHYVDVGPRDGTPVLFLHGNPTSSYVWRNIIPHVAPTHRCIAPDLIGMGKSDKPDLGYFFDDHVRFMDAFIEALGLEEVVLVIHDWGSALGFHWAKRNPERVKGIAFMEFIRPIPTWDEWPEFARETFQAFRTTDVGRELIIDQNVFIEGTLPMGVVRPLTEVEMDHYREPFLNPVDREPLWRFPNELPIAGEPANIVALVEEYMDWLHQSPVPKLLFWGTPGVLIPPAEAARLAKSLPNCKAVDIGPGLNLLQEDNPDLIGSEIARWLSTLEISGGSGGSGGGGSGGMVFTLEDFVGDWEQTAAYNLDQVLEQGGVSSLLQNLAVSVTPIQRIVRSGENALKIDIHVIIPYEGLSADQMAQIEEVFKVVYPVDDHHFKVILPYGTLVIDGVTPNMLNYFGRPYEGIAVFDGKKITVTGTLWNGNKIIDERLITPDGSMLFRVTINSGSGHHHHHH,"Labeling with TMR HaloTag ligand, response to synthetic peptide complementation",[2],better fold response to complementation with the peptide
"M2F+D53G+K140E: triple mutant reporter, best candidate protein (protein) MFHYVDVGPRDGTPVLFLHGNPTSSYVWRNIIPHVAPTHRCIAPDLIGMGKSGKPDLGYFFDDHVRFMDAFIEALGLEEVVLVIHDWGSALGFHWAKRNPERVKGIAFMEFIRPIPTWDEWPEFARETFQAFRTTDVGRELIIDQNVFIEGTLPMGVVRPLTEVEMDHYREPFLNPVDREPLWRFPNELPIAGEPANIVALVEEYMDWLHQSPVPKLLFWGTPGVLIPPAEAARLAKSLPNCKAVDIGPGLNLLQEDNPDLIGSEIARWLSTLEISGGSGGSGGGGSGGMVFTLEDFVGDWEQTAAYNLDQVLEQGGVSSLLQNLAVSVTPIQRIVRSGENALKIDIHVIIPYEGLSADQMAQIEEVFKVVYPVDDHHFKVILPYGTLVIDGVTPNMLNYFGRPYEGIAVFDGKKITVTGTLWNGNKIIDERLITPDGSMLFRVTINSGSGHHHHHH",Function with FAM HaloTag ligand,[3],functional
same,Function with JF503 HaloTag ligand,[3],functional
same,Function with JF549 HaloTag ligand,[3],functional
same,Function with JFX554 HaloTag ligand,[3],functional
same,Function with Oregon Green HaloTag ligand,[3],functional
same,"Labeling with TMR HaloTag ligand, response to synthetic peptide complementation",[2],best dynamic range of all combinations tested
M2F+D53S+V177E: more highly stabilized purified reporter variant of FIG. 60 (protein) MFHYVDVGPRDGTPVLFLHGNPTSSYVWRNIIPHVAPTHRCIAPDLIGMGKSSKPDLGYFFDDHVRFMDAFIEALGLEEVVLVIHDWGSALGFHWAKRNPERVKGIAFMEFIRPIPTWDEWPEFARETFQAFRTTDVGRKLIIDQNVFIEGTLPMGVVRPLTEVEMDHYREPFLNPEDREPLWRFPNELPIAGEPANIVALVEEYMDWLHQSPVPKLLFWGTPGVLIPPAEAARLAKSLPNCKAVDIGPGLNLLQEDNPDLIGSEIARWLSTLEISGGSGGSGGGGSGGMVFTLEDFVGDWEQTAAYNLDQVLEQGGVSSLLQNLAVSVTPIQRIVRSGENALKIDIHVIIPYEGLSADQMAQIEEVFKVVYPVDDHHFKVILPYGTLVIDGVTPNMLNYFGRPYEGIAVFDGKKITVTGTLWNGNKIIDERLITPDGSMLFRVTINS,Loss of activity at 37° C. temperature challenge,[4],loses less than half of its activity
LgBiT: polypeptide component of a bioluminescent complex (β1-9-like polypeptide) (protein) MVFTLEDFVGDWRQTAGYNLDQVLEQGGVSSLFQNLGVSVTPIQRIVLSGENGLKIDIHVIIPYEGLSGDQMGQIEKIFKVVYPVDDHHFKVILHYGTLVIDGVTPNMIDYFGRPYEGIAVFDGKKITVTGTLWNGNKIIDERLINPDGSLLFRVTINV,Dissociation from the DualTag peptide,DualTag peptide,faster dissociation
